Source: the Human Domainome abundance scans (Beltran et al. 2025)
± gives the uncertainty stated by the source.

Assay: abundance fitness (aPCA) (normalised: wild type 0, dead -1); higher = more abundant; growth selection in yeast, the domain comes from the species named
Conditions: Homo sapiens

Row | Substance | abundance fitness
1 | DnaJ homolog subfamily B member 1 G40S, P25685 | -0.195 ± 0.086
2 | DnaJ homolog subfamily B member 1 G40V, P25685 | -0.133 ± 0.079
3 | DnaJ homolog subfamily B member 1 G40Y, P25685 | -0.182 ± 0.15
4 | DnaJ homolog subfamily B member 1 H32A, P25685 | -0.154 ± 0.16
5 | DnaJ homolog subfamily B member 1 H32C, P25685 | -0.106 ± 0.14
6 | DnaJ homolog subfamily B member 1 H32D, P25685 | -0.241 ± 0.23
7 | DnaJ homolog subfamily B member 1 H32E, P25685 | 0.035 ± 0.091
8 | DnaJ homolog subfamily B member 1 H32F, P25685 | -0.139 ± 0.16
9 | DnaJ homolog subfamily B member 1 H32G, P25685 | -0.007 ± 0.072
10 | DnaJ homolog subfamily B member 1 H32I, P25685 | -0.246 ± 0.12
11 | DnaJ homolog subfamily B member 1 H32K, P25685 | -0.777 ± 0.16
12 | DnaJ homolog subfamily B member 1 H32L, P25685 | -0.025 ± 0.082
13 | DnaJ homolog subfamily B member 1 H32M, P25685 | 0.014 ± 0.089
14 | DnaJ homolog subfamily B member 1 H32N, P25685 | 0.017 ± 0.15
15 | DnaJ homolog subfamily B member 1 H32P, P25685 | -0.199 ± 0.14
16 | DnaJ homolog subfamily B member 1 H32R, P25685 | -0.057 ± 0.061
17 | DnaJ homolog subfamily B member 1 H32S, P25685 | 0.05 ± 0.073
18 | DnaJ homolog subfamily B member 1 H32T, P25685 | -0.048 ± 0.072
19 | DnaJ homolog subfamily B member 1 H32W, P25685 | -0.155 ± 0.075
20 | DnaJ homolog subfamily B member 1 H32Y, P25685 | -0.192 ± 0.21
21 | DnaJ homolog subfamily B member 1 I20A, P25685 | -0.63 ± 0.092
22 | DnaJ homolog subfamily B member 1 I20C, P25685 | -0.431 ± 0.079
23 | DnaJ homolog subfamily B member 1 I20D, P25685 | -0.766 ± 0.17
24 | DnaJ homolog subfamily B member 1 I20E, P25685 | -0.956 ± 0.15
25 | DnaJ homolog subfamily B member 1 I20F, P25685 | -0.708 ± 0.1
26 | DnaJ homolog subfamily B member 1 I20G, P25685 | -0.9 ± 0.071

Row | Substance | abundance fitness
27 | DnaJ homolog subfamily B member 1 I20H, P25685 | -0.948 ± 0.13
28 | DnaJ homolog subfamily B member 1 I20K, P25685 | -0.86 ± 0.087
29 | DnaJ homolog subfamily B member 1 I20L, P25685 | -0.143 ± 0.076
30 | DnaJ homolog subfamily B member 1 I20M, P25685 | -0.575 ± 0.12
31 | DnaJ homolog subfamily B member 1 I20N, P25685 | -1.02 ± 0.11
32 | DnaJ homolog subfamily B member 1 I20P, P25685 | -1.26 ± 0.17
33 | DnaJ homolog subfamily B member 1 I20Q, P25685 | -0.759 ± 0.13
34 | DnaJ homolog subfamily B member 1 I20R, P25685 | -0.832 ± 0.06
35 | DnaJ homolog subfamily B member 1 I20S, P25685 | -0.782 ± 0.061
36 | DnaJ homolog subfamily B member 1 I20W, P25685 | -1.42 ± 0.12
37 | DnaJ homolog subfamily B member 1 I48A, P25685 | -0.108 ± 0.079
38 | DnaJ homolog subfamily B member 1 I48C, P25685 | -0.073 ± 0.11
39 | DnaJ homolog subfamily B member 1 I48D, P25685 | -0.667 ± 0.12
40 | DnaJ homolog subfamily B member 1 I48E, P25685 | -0.697 ± 0.095
41 | DnaJ homolog subfamily B member 1 I48F, P25685 | -0.41 ± 0.13
42 | DnaJ homolog subfamily B member 1 I48G, P25685 | -0.615 ± 0.065
43 | DnaJ homolog subfamily B member 1 I48H, P25685 | -0.561 ± 0.12
44 | DnaJ homolog subfamily B member 1 I48K, P25685 | -0.329 ± 0.2
45 | DnaJ homolog subfamily B member 1 I48L, P25685 | -0.089 ± 0.072
46 | DnaJ homolog subfamily B member 1 I48M, P25685 | -0.111 ± 0.099
47 | DnaJ homolog subfamily B member 1 I48P, P25685 | -0.561 ± 0.1
48 | DnaJ homolog subfamily B member 1 I48Q, P25685 | -0.422 ± 0.12
49 | DnaJ homolog subfamily B member 1 I48R, P25685 | -0.74 ± 0.075
50 | DnaJ homolog subfamily B member 1 I48S, P25685 | -0.387 ± 0.074
51 | DnaJ homolog subfamily B member 1 I48V, P25685 | -0.267 ± 0.089
52 | DnaJ homolog subfamily B member 1 I48W, P25685 | -1 ± 0.11

Row | Substance | abundance fitness
53 | DnaJ homolog subfamily B member 1 I48Y, P25685 | -0.386 ± 0.2
54 | DnaJ homolog subfamily B member 1 I63A, P25685 | 0.237 ± 0.097
55 | DnaJ homolog subfamily B member 1 I63C, P25685 | -0.083 ± 0.1
56 | DnaJ homolog subfamily B member 1 I63D, P25685 | -0.014 ± 0.21
57 | DnaJ homolog subfamily B member 1 I63E, P25685 | 0.092 ± 0.1
58 | DnaJ homolog subfamily B member 1 I63F, P25685 | -0.212 ± 0.26
59 | DnaJ homolog subfamily B member 1 I63G, P25685 | -0.003 ± 0.089
60 | DnaJ homolog subfamily B member 1 I63H, P25685 | -0.311 ± 0.33
61 | DnaJ homolog subfamily B member 1 I63K, P25685 | -0.019 ± 0.13
62 | DnaJ homolog subfamily B member 1 I63L, P25685 | -0.097 ± 0.082
63 | DnaJ homolog subfamily B member 1 I63M, P25685 | -0.087 ± 0.085
64 | DnaJ homolog subfamily B member 1 I63N, P25685 | -0.012 ± 0.11
65 | DnaJ homolog subfamily B member 1 I63P, P25685 | 0.08 ± 0.11
66 | DnaJ homolog subfamily B member 1 I63Q, P25685 | 0.098 ± 0.074
67 | DnaJ homolog subfamily B member 1 I63R, P25685 | 0.044 ± 0.074
68 | DnaJ homolog subfamily B member 1 I63S, P25685 | 0.108 ± 0.068
69 | DnaJ homolog subfamily B member 1 I63T, P25685 | 0.588 ± 0.081
70 | DnaJ homolog subfamily B member 1 I63V, P25685 | 0.016 ± 0.065
71 | DnaJ homolog subfamily B member 1 I63W, P25685 | -0.277 ± 0.12
72 | DnaJ homolog subfamily B member 1 I63Y, P25685 | -0.236 ± 0.12
73 | DnaJ homolog subfamily B member 1 K21A, P25685 | -0.071 ± 0.072
74 | DnaJ homolog subfamily B member 1 K21C, P25685 | -0.089 ± 0.071
75 | DnaJ homolog subfamily B member 1 K21D, P25685 | -0.25 ± 0.12
76 | DnaJ homolog subfamily B member 1 K21E, P25685 | -0.182 ± 0.1
77 | DnaJ homolog subfamily B member 1 K21H, P25685 | 0.006 ± 0.085
78 | DnaJ homolog subfamily B member 1 K21L, P25685 | -0.029 ± 0.051

Row | Substance | abundance fitness
79 | DnaJ homolog subfamily B member 1 K21P, P25685 | -0.822 ± 0.08
80 | DnaJ homolog subfamily B member 1 K21Q, P25685 | 0.122 ± 0.051
81 | DnaJ homolog subfamily B member 1 K21R, P25685 | -0.126 ± 0.059
82 | DnaJ homolog subfamily B member 1 K21S, P25685 | -0.097 ± 0.051
83 | DnaJ homolog subfamily B member 1 K21T, P25685 | -0.053 ± 0.064
84 | DnaJ homolog subfamily B member 1 K21V, P25685 | -0.078 ± 0.061
85 | DnaJ homolog subfamily B member 1 K21W, P25685 | -0.152 ± 0.072
86 | DnaJ homolog subfamily B member 1 K21Y, P25685 | -0.121 ± 0.088
87 | DnaJ homolog subfamily B member 1 K35A, P25685 | -0.359 ± 0.082
88 | DnaJ homolog subfamily B member 1 K35C, P25685 | -0.46 ± 0.11
89 | DnaJ homolog subfamily B member 1 K35D, P25685 | -0.193 ± 0.13
90 | DnaJ homolog subfamily B member 1 K35E, P25685 | -0.285 ± 0.088
91 | DnaJ homolog subfamily B member 1 K35F, P25685 | -0.614 ± 0.11
92 | DnaJ homolog subfamily B member 1 K35G, P25685 | -0.25 ± 0.083
93 | DnaJ homolog subfamily B member 1 K35H, P25685 | -0.724 ± 0.12
94 | DnaJ homolog subfamily B member 1 K35I, P25685 | -0.504 ± 0.086
95 | DnaJ homolog subfamily B member 1 K35L, P25685 | -0.55 ± 0.071
96 | DnaJ homolog subfamily B member 1 K35M, P25685 | -0.596 ± 0.1
97 | DnaJ homolog subfamily B member 1 K35N, P25685 | -0.742 ± 0.13
98 | DnaJ homolog subfamily B member 1 K35P, P25685 | -0.365 ± 0.1
99 | DnaJ homolog subfamily B member 1 K35Q, P25685 | -0.213 ± 0.092
100 | DnaJ homolog subfamily B member 1 K35R, P25685 | 0.034 ± 0.092
101 | DnaJ homolog subfamily B member 1 K35S, P25685 | -0.438 ± 0.064
102 | DnaJ homolog subfamily B member 1 K35T, P25685 | -0.414 ± 0.095
103 | DnaJ homolog subfamily B member 1 K35V, P25685 | -0.396 ± 0.1
